Legend:
[1] = target: T1, kallikrein (Homo sapiens, UniProt P03952); experiment: cell-based or functional assay
Target sequence in this assay (P03952 20-638 limits assumed): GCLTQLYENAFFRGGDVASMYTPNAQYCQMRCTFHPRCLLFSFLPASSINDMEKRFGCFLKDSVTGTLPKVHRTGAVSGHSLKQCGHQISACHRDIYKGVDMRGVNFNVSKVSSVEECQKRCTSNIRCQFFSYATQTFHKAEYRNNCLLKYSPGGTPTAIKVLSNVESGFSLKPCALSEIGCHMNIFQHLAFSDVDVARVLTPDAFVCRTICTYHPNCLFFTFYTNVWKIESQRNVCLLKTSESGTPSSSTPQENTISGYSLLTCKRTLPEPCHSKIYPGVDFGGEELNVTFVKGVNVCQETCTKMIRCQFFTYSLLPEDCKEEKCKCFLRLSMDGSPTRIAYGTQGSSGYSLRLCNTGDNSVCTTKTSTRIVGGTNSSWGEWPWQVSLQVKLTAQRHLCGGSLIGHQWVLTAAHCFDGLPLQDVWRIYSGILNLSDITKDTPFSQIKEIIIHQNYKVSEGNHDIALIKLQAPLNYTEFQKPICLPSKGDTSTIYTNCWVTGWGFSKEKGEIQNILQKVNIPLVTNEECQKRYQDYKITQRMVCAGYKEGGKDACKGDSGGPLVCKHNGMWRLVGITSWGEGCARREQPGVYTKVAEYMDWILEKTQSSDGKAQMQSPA

[2] = target: T2, C1 esterase (UniProt P09871); experiment: cell-based or functional assay
T2 sequence (looked up): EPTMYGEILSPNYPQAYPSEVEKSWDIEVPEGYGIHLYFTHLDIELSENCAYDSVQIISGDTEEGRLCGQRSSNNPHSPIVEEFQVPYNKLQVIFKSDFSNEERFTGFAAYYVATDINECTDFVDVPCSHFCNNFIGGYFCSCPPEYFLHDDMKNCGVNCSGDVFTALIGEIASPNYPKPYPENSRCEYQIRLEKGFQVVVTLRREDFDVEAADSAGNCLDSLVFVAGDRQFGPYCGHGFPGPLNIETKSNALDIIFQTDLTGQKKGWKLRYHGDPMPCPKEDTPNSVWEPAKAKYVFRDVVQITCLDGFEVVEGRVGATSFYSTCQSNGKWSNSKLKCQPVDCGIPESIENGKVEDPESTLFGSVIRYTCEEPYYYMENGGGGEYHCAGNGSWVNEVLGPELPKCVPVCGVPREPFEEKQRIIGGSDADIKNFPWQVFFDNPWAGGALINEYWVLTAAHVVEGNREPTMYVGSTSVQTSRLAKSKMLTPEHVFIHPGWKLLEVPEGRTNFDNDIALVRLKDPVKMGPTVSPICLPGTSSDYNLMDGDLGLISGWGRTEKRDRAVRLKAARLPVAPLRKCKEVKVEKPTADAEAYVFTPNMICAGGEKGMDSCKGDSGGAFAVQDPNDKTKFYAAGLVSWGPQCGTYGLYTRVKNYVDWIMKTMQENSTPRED

[3] = target: T1, kallikrein; experiment: C1 INH activity assay: inhibition of kallikrein activity; format: biochemical; conditions: lower EC50 = higher activity
Experimental: (§1) C1 INH activity was measured by the inhibition of C1 esterase and kallikrein activities. For the inhibition of C1 esterase activity, samples, standards, and controls were added to 96-well plate, and then C1-esterase was added. After 10 min incubation at 37° C., substrate of C1-eserasse was added. C1-esterase activity for cleavage of the substrate was monitored at 37° C. for 4 minutes kinetically. The higher C1 INH activity results in the lower C1 esterase activity or the lower cleavage rate of substrate. For the inhibition of kallikrein activity, EC50 was used to evaluate PEG-C1 INH activity. Lower EC50 value indicates higher activity of kallikrein inhibition.
Target sequence in this assay (P03952 20-638): as the sequence (P03952 20-638 limits assumed) above

[4] = target: T3, C1 esterase (Homo sapiens, UniProt P09871); experiment: C1 INH activity assay: inhibition of C1 esterase activity; format: biochemical; conditions: for Activity of C1 Esterase inhibition U/mg: 96-well plate, 37° C., kinetic substrate cleavage
T3 sequence (P09871 16-688): T2 sequence (looked up)
Experimental: as §1

[5] = Conjugate stability on SDS gel (heating, reduction, acid treatment); format: physicochemical
Experimental: The concentration of PEGylated C1 INH was determined by UV at 280 nm (extinction coefficient of C1 INH was 0.39 mL/mg·cm). Sample at 5 μg or 10 μg was loaded into the gel without sample reduction and heating for electrophoresis. In a separate experiment, the samples were heated at 70° C. for 7 minutes in the presence or absence of 75 mM β-mercaptoethanol in gel buffer. There was no evidence of conjugate breakdown under such conditions. […] The protein bands were visualized after simple blue stain. The density of the image was obtained on Molecular Dynamics. […] There were eight PEG (20 or 30k) strands attached per C1 INH as analyzed SEC-MALS.

PEG-20k-Glycan-C1 INH (60 mg scale), sequence (P05155 23-500 limits assumed): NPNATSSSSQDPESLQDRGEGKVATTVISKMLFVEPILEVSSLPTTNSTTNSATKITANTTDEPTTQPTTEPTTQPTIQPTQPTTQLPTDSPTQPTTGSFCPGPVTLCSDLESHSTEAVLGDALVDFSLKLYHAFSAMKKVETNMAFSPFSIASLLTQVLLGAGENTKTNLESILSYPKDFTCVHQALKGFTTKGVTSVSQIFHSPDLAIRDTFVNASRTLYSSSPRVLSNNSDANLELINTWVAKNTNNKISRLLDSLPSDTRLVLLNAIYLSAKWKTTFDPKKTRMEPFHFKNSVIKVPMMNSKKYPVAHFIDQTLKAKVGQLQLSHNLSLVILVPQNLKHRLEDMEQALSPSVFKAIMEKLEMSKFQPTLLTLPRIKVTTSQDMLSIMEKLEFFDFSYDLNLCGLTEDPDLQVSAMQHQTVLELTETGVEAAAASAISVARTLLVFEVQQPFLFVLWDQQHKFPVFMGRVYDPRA
C1 Esterase Inhibitor (C1 INH), native, sequence (P05155 23-500 limits assumed): as above
PEG-20k-Glycan-C1 INH (5 mg scale), sequence (P05155 23-500 limits assumed): as above

Question: Which Activity of Kallikrein inhibition, % C1 INH activity [1] does the source give for “C1 Esterase Inhibitor (C1 INH), native (from UniProt P05155 23-500)” here?
Answer: 100%

Question: What about the Activity of Kallikrein inhibition, EC50 [1] of the same substance?
Answer: 200 nM

Question: And the Activity of C1 Esterase inhibition, % C1 INH activity [2]?
Answer: 100%

Question: And the Activity of C1 Esterase inhibition, U/mg [2]?
Answer: 7 U/mg

Question: For “C1 INH: C1 Esterase Inhibitor obtained from Athens Research & Technology, MW 73000 Da by MALDI; unmodified reference protein”, which EC50 [3] is on record?
Answer: 200 nM

Question: What about the “Activity of C1 Esterase inhibition U/mg” value [4] of the same substance?
Answer: 7.0 U/mg

Question: With “PEG-20k-Glycan-C1 INH (5 mg scale) (from UniProt P05155 23-500)” as the substance, how does the % C1 INH activity on C1 esterase inhibition (small scale) [2] read?
Answer: 97%

Question: What about the Activity of C1 Esterase inhibition, % C1 INH activity [2] of the same substance?
Answer: 94%

Question: And the Activity of C1 Esterase inhibition, U/mg [2]?
Answer: 6.6 U/mg

Question: With “PEG-20k-Glycan-C1 INH (5 mg scale): Same PEG-20k-hydrazide glycan conjugate of C1 INH prepared at 5 mg scale; PEG number pending” as the substance, how does the “Activity of C1 Esterase inhibition U/mg” value [4] read?
Answer: 6.6 U/mg

Question: With “PEG-20k-Glycan-C1 INH (60 mg scale) (from UniProt P05155 23-500)” as the substance, how does the Activity of Kallikrein inhibition, % C1 INH activity [1] read?
Answer: 67%

Question: What about the Activity of Kallikrein inhibition, EC50 [1] of the same substance?
Answer: 300 nM

Question: And the Activity of C1 Esterase inhibition, % C1 INH activity [2]?
Answer: 73%

Question: And the Activity of C1 Esterase inhibition, U/mg [2]?
Answer: 5.1 U/mg

Question: Which results are given for “PEG-20k-Glycan-C1 INH (60 mg scale): C1 INH oxidized with periodate at glycan and conjugated with PEG-hydrazide 20k; eight PEG strands per C1 INH”?
Answer: EC50 [3]: 300 nM; Activity of C1 Esterase inhibition U/mg [4]: 5.1 U/mg; % C1 INH activity on C1 esterase inhibition, small scale ([4]; small scale batch, relative to native C1 INH): 97%; Stability of conjugate under acidic conditions ([5]; 0.1% TFA or sodium acetate, pH 4.7): releasable; Stability of conjugate to heating and reducing at neutral pH ([5]; 70° C. for 7 minutes, with or without 75 mM β-mercaptoethanol, SDS gel): stable
